Test results as given in US20070219354A1.

Biological target: APP695-derived polypeptide (SEQ. ID. NO.:28) having the modified sequence NLDV (SEQ. ID. NO.:7) (Homo sapiens (Human)) (UniProt P05067)
Experiment: cell-based or functional assay

Aβ production in HEK293T cells (IP/Western, densitometry) (times the level of wild type APP695): > 3
Substance: β-secretase of the HEK293T cells used in Example 4 (from UniProt P56817 46-501) (enzyme)
